Data: PMC3852207
pKd: −log10 of the molar value.

Legend:
Rac1 (Homo sapiens) = Rac1 (Homo sapiens) (UniProt P63000); conditions: cited from earlier work
Cdc42 (Homo sapiens) = Cdc42 (Homo sapiens) (UniProt P60953); conditions: cited from earlier work
GST-p50 RhoGAP = experiment: scintillation proximity assay (direct); GST-p50 RhoGAP on SPA beads; [3H]GTP·Cdc42 or [3H]GTP·Rac1 in solution; values used as fixed Kd in the competition fits
Q61L Cdc42·[3H]GTP = Q61L Cdc42·[3H]GTP (UniProt P60953); experiment: scintillation proximity assay (competition); competitor titrated into 30 nM [3H]GTP·Rac1 or [3H]GTP·Cdc42 and 30 nM GST-p50 RhoGAP immobilised on fluoromicrospheres via an anti-GST antibody; partial competition model for RLIP76 GAP and didomain, full competition for GAP insert and free p50 RhoGAP
Q61L Cdc42·[3H]GTP, sequence (P60953 whole entry Q61L): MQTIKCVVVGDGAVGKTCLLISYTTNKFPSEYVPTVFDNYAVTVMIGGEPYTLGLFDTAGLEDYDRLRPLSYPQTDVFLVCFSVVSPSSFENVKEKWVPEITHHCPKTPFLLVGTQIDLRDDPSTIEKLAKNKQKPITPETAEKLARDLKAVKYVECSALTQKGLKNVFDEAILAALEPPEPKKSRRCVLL

Q61L Rac1·[3H]GTP = Q61L Rac1·[3H]GTP (UniProt P63000); experiment: as above

Cdc42 (Homo sapiens), sequence (P60953 1-188): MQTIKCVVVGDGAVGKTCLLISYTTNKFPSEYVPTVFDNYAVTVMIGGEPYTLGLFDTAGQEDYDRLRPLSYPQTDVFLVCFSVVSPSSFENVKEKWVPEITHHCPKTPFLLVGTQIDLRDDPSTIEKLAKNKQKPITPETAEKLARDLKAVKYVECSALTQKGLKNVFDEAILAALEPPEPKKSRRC

pKd (GST-p50 RhoGAP)	pKd (Q61L Cdc42·[3H]GTP)	pKd (Q61L Rac1·[3H]GTP)	Substance	pKd (Rac1 (Homo sapiens))	pKd (Cdc42 (Homo sapiens))
–	–	–	p50 RhoGAP (from UniProt Q07960)	7.74	7.62
7.10	–	–	Q61L Cdc42·[3H]GTP (from UniProt P60953 1-191) (natural protein)	–	–
–	6.61	6.82	untagged p50 RhoGAP (domain or fragment)	–	–
–	5.25	5.63	His-RLIP76 GAP-GBD didomain (residues 184-446) (from UniProt Q15311 184-446) (domain or fragment)	–	–
–	5.21	5.77	His-RLIP76 GAP domain (residues 184-380) (from UniProt Q15311 184-380) (domain or fragment)	–	–
